Laboratory results: paper PMC10604209, “Thermal Characterization and Interaction of the Subunits from the Multimeric Bacteriophage Endolysin PlyC” (Biology, 2023)

B1: PlyCA, the catalytic subunit of the endolysin PlyC (enzyme, UniProt Q7Y3F1 1-465, looked up)
chain: MSKKYTQQQYEKYLAQPANNTFGLSPQQVADWFMGQAGARPVINSYGVNASNLVSTYIPKMQEYGVSYTLFLMYTVFEGGGAGNWINHYMYDTGSNGLECLEHDLQYIHGVWETYFPPALSAPECYPATEDNAGALDRFYQSLPGRTWGDVMIPSTMAGNAWVWAYNYCVNNQGAAPLVYFGNPYDSQIDSLLAMGADPFTGGSITGDGKNPSVGTGNATVSASSEANREKLKKALTDLFNNNLEHLSGEFYGNQVLNAMKYGTILKCDLTDDGLNAILQLIADVNLQTNPNPDKPTVQSPGQNDLGSGSDRVAANLANAQAQVGKYIGDGQCYAWVGWWSARVCGYSISYSTGDPMLPLIGDGMNAHSIHLGWDWSIANTGIVNYPVGTVGRKEDLRVGAIWCATAFSGAPFYTGQYGHTGIIESWSDTTVTVLEQNILGSPVIRSTYDLNTFLSTLTGLITFK
B2: PlyCB, the cell wall binding subunit of the endolysin PlyC (PlyCB CBD, an octamer) (natural protein)
chain: MSKINVNVENVSGVQGFLFHTDGKESYGYRAFINGVEIGIKDIETVQGFQQIIPSINISKSDVEAIRKAMKK
notes: PlyCB, 8 kDa subunit of the streptococcal bacteriophage endolysin PlyC; Above about 74 °C in PBS the octamer is said to dissociate reversibly into a monomeric intermediate state; also called PlyCB octamer; PlyCB subunit; source: also as a subunit of the purified recombinant PlyC holoenzyme

Experiments:
[1] = biological target: B2; assay: cell-based or functional assay
[2] = biological target: the molecule itself; assay: cross-linking; PlyCB CBD 1 mg/mL in PBS heated 10 min at temperatures up to 74.4 °C, amine cross-linking with 1 mM BS3 for 10 min, quenched with Tris, cooled on ice, SDS-PAGE
[3] = biological target: B1; assay: SEC; 500 uL ice-cold 19.5 uM PlyCA added rapidly to 500 uL 15.6 uM PlyCB CBD in PBS heated to 75 °C, cooled on ice 5 min, centrifuged, HiPrep 16/60 Sephacryl S-200 HR in PBS; the peak corresponding to native PlyC analysed by SDS-PAGE; details: both partners purified

## B1
[1]
  bacteriolytic activity toward S. pyogenes (turbidity reduction assay) of ice-cold PlyCA mixed about 1:1 with PlyCB CBD heated to 75 °C and then rapidly cooled, relative to native PlyC: 35 % of the relative bacteriolytic activity of native PlyC

## B2
[2]
  binding result: binds
[3]
  binding result: binds
